Laboratory results: US20120237528A1 (Janssen / Centocor, published 2012)
Changes are numbered by the printed parent chain.

B1: M1644 (antibody, V domains shown)
VH: EVQLVQSGAEVKKPGESLRISCKGSGYTFITYWIEWVRQMPGKGLEWMGDILPGSGSTNYSPSFQGHVTISADKSISTAYLQWSSLKASDTAMYYCARSGYYGNSGFAYWGQGTLVTVSS
VL: DIVMTQTPLSLPVTPGEPASISCKSSQSLLFRPTQKNYLTWYLQKPGQSPQLLIYWASTRESGVPDRFSGSGSGTDFTLKISRVEAEDVGVYYCQNDDSYPLTFGQGTKLEIK
notes: complete MAb; FR4 is its own entry; also called H22/L225
B2: M1645 (antibody, V domains shown)
VH: B1 VH
VL: B1 VL with F31Y, R32T, P33S, T34N, S99Y, Y100W
notes: complete MAb; FR4 is its own entry; also called H22/L283
B3: M1643 (antibody, V domains shown)
VH: B1 VH
VL: B1 VL with F31Y, R32V, P33Y, T34G, D98F, Y100W
notes: complete MAb; FR4 is its own entry; also called H22/L162
B4: M1648 (antibody, V domains shown)
VH: B1 VH with I30A, T31P, S55T, S57F, N59T
VL: B1 VL with F31P, R32S, P33W, T34N, K36S, D98F, S99T
notes: complete MAb; FR4 is its own entry; also called H171/L327
B5: M1647 (antibody, V domains shown)
VH: B1 VH with I30A, T31P, S55T, S57F, N59T
VL: B1 VL with F31Y, R32S, P33G, T34N, K36R, E61S, S99T, L102M
notes: complete MAb; FR4 is its own entry; also called H171/L320
B6: M1650 (antibody, V domains shown)
VH: B1 VH with I30A, T31P, S55T, S57F, N59T
VL: B1 VL with F31T, R32S, P33Y, T34N, K36R, D98L, S99T
notes: complete MAb; FR4 is its own entry; also called H171/L369
B7: M23 (antibody, V domains shown)
VH: QVQLVQSGAEVKKPGASVKVSCKASGYTFITYWIEWVRQAPGQRLEWMGDILPGSGSTNYNENFKGRVTITRDTSASTAYMELSSLRSEDTAVYYCARSGYYGNSGFAYWGQGTLVTVSS
VL: DIVMTQSPDSLAVSLGERATINCKSSQSLLSSGNQKNYLTWYQQKPGQPPKLLIYWASTRESGVPDRFSGSGSGTDFTLTISSLQAEDVAVYYCQNDYTYPLTFGQGTKLEIK
notes: complete MAb; FR4 is its own entry; also called H17/L2
B8: M44 (antibody, V domains shown)
VH: B7 VH with R44G, I70M, R72T, A76T, S84R, E89D
VL: B7 VL
notes: complete MAb; FR4 is its own entry; also called H20/L2
B9: M65 (antibody, V domains shown)
VH: B7 VH with A16S, R44G, N61A, E62Q, N63K, K65Q, R72A, T74E, A76T
VL: B7 VL
notes: complete MAb; FR4 is its own entry; also called H23/L2
B10: M63 (antibody, V domains shown)
VH: B1 VH
VL: DIVMTQTPLSSPVTLGQPASISCKSSQSLLSSGNQKNYLTWLQQRPGQPPRLLIYWASTRESGVPDRFSGSGAGTDFTLKISRVEAEDVGVYYCQNDYTYPLTFGQGTKLEIK
notes: complete MAb; FR4 is its own entry; also called H22/L7
B11: M38 (antibody, V domains shown)
VH: B7 VH with A16S, R44G, R72A, T74E, A76T
VL: B1 VL with F31S, R32S, P33G, T34N, D98Y, S99T
notes: complete MAb; FR4 is its own entry; also called H19/L3
B12: M17 (antibody, V domains shown)
VH: B7 VH with R44G, I70M, A76T, A79V
VL: B1 VL with F31S, R32S, P33G, T34N, D98Y, S99T
notes: complete MAb; FR4 is its own entry; also called H16/L3
B13: M18 (antibody, V domains shown)
VH: B7 VH with R44G, I70M, A76T, A79V
VL: B1 VL with T7S, F31S, R32S, P33G, T34N, D98Y, S99T
notes: complete MAb; FR4 is its own entry; also called H16/L4
B14: M24 (antibody, V domains shown)
VH: B7 VH
VL: B1 VL with F31S, R32S, P33G, T34N, D98Y, S99T
notes: complete MAb; FR4 is its own entry; also called H17/L3

target: T1, recombinant extracellular domain (ECD) of human TF, amino acid 1-219 of the mature chain, C-terminal His6-tag (human, UniProt P13726 33-251); assay: Biacore
T1 construct: expressed in a mammalian system; used for ELISA and Biacore; biotinylated by NHS-ester for the Fab ELISA; also called His6-TF-ECD1-219; HumanTF1-219

| Kd | Binder |
| --- | --- |
| 0.12 nM | B1 |
| 0.08 nM | B2 |
| 0.18 nM | B3 |
| 0.73 nM | B4 |
| 0.1 nM | B5 |
| 0.19 nM | B6 |

target: Innovin, lyophilized recombinant human tissue factor combined with phospholipids (human, UniProt P13726 33-295, limits assumed); assay: cell-based or functional assay

| T½ Max (seconds), coagulation of human plasma | Binder |
| --- | --- |
| 150 s | B1 |
| 154 s | B2 |
| 148 s | B3 |
| 161 s | B4 |
| 160 s | B5 |
| 150 s | B6 |

target: T1, recombinant extracellular domain (ECD) …; assay: direct ELISA, 50 ng/ml

| binding result | Binder |
| --- | --- |
| binds | B7 |
| binds | B8 |
| binds | B9 |
| binds | B10 |
| binds | B11 |
| binds | B12 |
| binds | B13 |
| binds | B14 |
